{"source": "patent US20200164068A1", "about": "“MODULATORS OF TUMOR IMMUNE RESISTANCE FOR THE TREATMENT OF CANCER” (DEUTSCHES KREBSFORSCHUNGSZENTRUM STIFTUNG DES ÖFFENTLICHEN …, priority 2016, published 2020)", "molecules": {"B1": {"name": "CCR9-specific shRNA (nucleic acid)", "DNA": "ACCGGGCCAGTGGAGGTCTTTGTTCTGTTAATATTCATAGCAGAACAAGGACCTTCACTGGCTTTT"}}, "key": {"MCF7 cells": {"tested_on": "MCF7 cells", "assay": "Chromium-release cytotoxicity assay, MCF7 cells and survivin-specific CTL", "assay_type": "cell-based", "settings": "MCF7 cells pre-treated with 250 ng/ml PTX for 1 h, compared to CCR9 gene knockdown", "description": "(§1) Tumor cells were transfected with the described siRNAs using RNAiMAX or with pCMV6-AC-His-CCR9 encoding vector and empty control vector (OriGene, Rockville, USA) using TransIT-LT1. 72 h later, transfected cells were harvested for chromium-release cytotoxicity assay as detailed in Supplementary Methods. For CCR9 blockade using pertussis toxin (PTX), […] tumor cells were incubated with 250 ng/ml of PTX (Sigma Aldrich) for 1 h at 37° C. before labeling with radioactive chromium."}, "CCR9+ tumor cells": {"tested_on": "CCR9+ tumor cells", "assay": "Transwell migration assay toward CCL25", "assay_type": "cell-based"}, "HLA-A2": {"tested_on": "HLA-A2", "assay": "Surface HLA-A2 expression on M579-A2 cells", "assay_type": "cell-based, human", "settings": "M579-A2 upon CCR9 knockdown"}, "M579-A2 tumor cells": {"tested_on": "M579-A2 tumor cells", "assay": "Chromium-release cytotoxicity assay, M579-A2 melanoma cells and TIL 209", "assay_type": "cell-based, human", "settings": "stable CCR9 knockdown M579-A2 versus shControl", "excerpt": "MCF7, MDA-MB-231 (breast cancer), and PANC-1 pancreatic cancer cells were acquired from American Type Cell Culture (Wesel, Germany). MCF7luc cells were generated by electroporation with pEGFP-Luc plasmid and expansion of sorted GFP+ clones in selection medium containing […] G418 (Gibco, UK). M579-A2 melanoma culture was established from a patient and stably transfected with HLA-A2 expression construct as described before (Machlenkin et al, 2008). For stable CCR9 knockdown, lentiviral particles were produced using the pRSI9-U6-TagRFP-2APuro lentiviral expression vector (Cellecta) that contained either the CCR9-specific shRNA hairpin ([…]: SEQ ID NO. 5) or control nontargeting shRNA. Viruses were packaged using the psPAX2 and pMD2.G packaging plasmids (Addgene), and tumor cell lines were transduced with the viral particles as per the manufacturer's protocol.\nas §1"}, "M579-A2 tumors": {"tested_on": "M579-A2 tumors", "assay": "In vivo M579-A2 tumor growth in NSG mice with adoptive TIL 209 transfer", "description": "Appropriate approval for animal work was obtained from the regulatory authorities (Regierungsprasidium, Karlsruhe) before the start of the experiment. Four- to six-week-old female NSG mice were ordered from the Animal Core Facility at DKFZ, Heidelberg. Mice were subcutaneously injected with 5×10^5 cells (in 100 μl of matrigel per injection) of each CCR9-M579-A2 (transduced with CCR9-specific shRNA) and CCR9+M579-A2 (transduced with non-targeting control shRNA) cell lines in the left and the right flank, respectively. Following this, at Day 2 and Day 9, 7 out of the 10 tumor-bearing mice received adoptive transfer of expanded TIL 209 cells intravenously into the tail vein (1×10^7 cells/100 μl PBS/mouse). The remaining three mice were injected with PBS alone to assess tumor growth in the absence of adoptive TIL transfer. Tumor measurements were performed using a digital caliper (Carl Roth) at the indicated time points, and tumor volume was measured using the formula: volume=height*width*width*(n/3).\nDifferences between test and control groups were analyzed by two-sided Student's t-test. In all statistical tests, a P-value <0.05 was considered significant. Statistical difference between the tumor growth curves in vivo was assessed using the unpaired one-sided Mann-Whitney U-test."}, "CCL25": {"tested_on": "CCL25", "assay": "ELISA of CCL25 levels in tumor cell lysates", "assay_type": "cell-based", "settings": "stable knockdown"}}}
{"molecule": "pertussis toxin", "values": [{"measurement": "Tumor lysis by antigen-specific T cells", "setting": "MCF7 cells", "value": "did not elicit elevated tumor lysis"}, {"measurement": "Migration of CCR9+ tumor cells toward CCL25", "setting": "CCR9+ tumor cells", "value": "inhibited the migration"}]}
{"molecule": "B1", "values": [{"measurement": "Surface HLA-A2 expression", "setting": "HLA-A2", "value": "no significant difference"}, {"measurement": "Immune lysis by tumor-infiltrating lymphocytes (TIL 209)", "setting": "M579-A2 tumor cells", "value": "more susceptible to immune lysis"}, {"measurement": "Tumor growth kinetic without T cell transfer", "setting": "M579-A2 tumors; CCR9- versus CCR9+ M579-A2 tumors in NSG mice given PBS alone", "value": "No difference"}, {"measurement": "Tumor growth in response to adoptive T cell transfer", "setting": "M579-A2 tumors; CCR9- versus CCR9+ M579-A2 tumors s.c. in NSG mice, TIL 209 i.v. at Day 2 and Day 9", "value": "grew significantly slower"}, {"measurement": "CCL25 production by MCF7 breast cancer cells", "setting": "CCL25", "value": "did not affect"}]}
